Positions count from the first letter of the chain named. In names and notes the source's numbering stands. Read-outs that look alike come from different tables or passages of the source.
B1: F10 CDR-H2 variant ISPIFGTA (germline CDR-H2 with Ser52 restored) scFv (scFv, V domains shown)
VH: QVQLVQSGAEVKKPGSSVKVSCTSSEVTFSSFAISWVRQAPGQGLEWLGGISPIFGTANYAQKFQGRVTITADQSTRTAYMDLRSLRSEDTAVYYCARSPSYICSGGTCVFDHWGQGTLVTVSS
VL: QPGLTQPPSVSKGLRQTATLTCTGNSNNVGNQGAAWLQQHQGHPPKLLSYRNNDRPSGISERFSASRSGNTASLTITGLQPEDEADYYCSTWDSSLSAVVFGGGTKLTVL
B2: F10 scFv (wild type) (scFv, V domains shown)
VH: B1 VH with I54M, A58P
VL: B1 VL
B3: F10 Y98A scFv (scFv, V domains shown)
VH: B1 VH with I54M, A58P, Y102A
VL: B1 VL
B4: F10 CDR-H2 variant IIPMFGTA (germline CDR-H2 with Met53 restored) scFv (scFv, V domains shown)
VH: B1 VH with S52I, I54M
VL: B1 VL
B5: CR6261 Y98A scFv (scFv, V domains shown)
VH: EVQLVESGAEVKKPGSSVKVSCKASGGPFRSYAISWVRQAPGQGPEWMGGIIPIFGTTKYAPKFQGRVTITADDFAGTVYMELSSLRSEDTAMYYCAKHMGAQVRETMDVWGKGTTVTVSS
VL: QSVLTQPPSVSAAPGQKVTISCSGSSSNIGNDYVSWYQQLPGTAPKLLIYDNNKRPSGIPDRFSGSKSGTSATLGITGLQTGDEANYYCATWDRRPTAYVVFGGGTKLTVL
B6: CR6261 scFv (wild type) (scFv, V domains shown)
VH: B5 VH with A102Y
VL: B5 VL
B7: CR6261 F54A scFv (scFv, V domains shown)
VH: B5 VH with F55A, A102Y
VL: B5 VL
B8: A66 germline CDR-H2 variant (IIPIFGTA) scFv (scFv, V domains shown)
VH: QVQLVQSGAEVKKPGSSVKVSCKASGGPFSMTAFTWLRQAPGQGLEWMGGIIPIFGTAKYAQKFQGRVTITADESTNTANMELTSLKSEDTAVYYCARTLSSYQPNNDAFAIWGQGTMVTVSS
VL: EIVLTQSPATLSLSPGERATLSCRASQSVSSYLAWYQQKPGQAPRLLIYDASNRATGIPARFSGSGSGTDFTLTISRLEPEDFAVYFCQQYGSSPQFGQGTRLEIK
B9: A66 CDR-H2 variant IIPIFRTA (germline CDR-H2 with Arg55 restored) scFv (scFv, V domains shown)
VH: B8 VH with G56R
VL: B8 VL
B10: A66 CDR-H2 variant ISPIFGTA (germline CDR-H2 with Ser52 restored) scFv (scFv, V domains shown)
VH: B8 VH with I52S
VL: B8 VL
B11: A66 scFv (wild type) (scFv, V domains shown)
VH: B8 VH with I52S, G56R, A58P
VL: B8 VL

What was measured:
Assay in all cases: SPR
[1] = target: T1, H5VN04 trimeric HA (recombinant hemagglutinin) (influenza A virus (H5VN04), UniProt Q6DQ33)
[2] = target: T1, H5VN04 trimeric HA (recombinant …); remark: listed apart in the source
[3] = target: T1, H5VN04 trimeric HA (recombinant …); remark: listed apart in the source
[4] = target: T1, H5VN04 trimeric HA (recombinant …); remark: listed apart in the source

Binder	Kd [1] [nM]	koff [2] [s⁻¹]	Kd [3] [nM]	koff [4] [s⁻¹]
B1	1.2	0.00025	–	–
B2	–	–	0.1	3.5e-05
B3	–	–	350	0.097
B4	270	–	–	–
B5	–	–	1600	0.027
B6	–	–	0.34	0.00012
B7	–	–	290	0.0073
B8	4.2	0.0049	–	–
B9	3.2	0.0034	–	–
B10	1.1	0.00023	–	–
B11	0.11	5e-05	–	–
